Reference: patent US20110237503A1 (Eli Lilly, published 2011)
Where no end group is shown, it is not given here. Side-chain parts run from the residue outwards. [ ]: non-standard residue; d: D form. maleimide = maleimide end of mPEG-20 kDa maleimide, which attaches the 20 kDa PEG to the Cys thiol; 1Nal = N[C@@H](Cc1cccc2ccccc12)C(=O)O; Aib = CC(C)(N)C(=O)O

Tests used:
[1] = biological target: T1, human glucose-dependent insulinotropic polypeptide receptor (hGIP-R) (human, UniProt P48546 22-466); assay: cell-based or functional assay
T1 sequence (looked up): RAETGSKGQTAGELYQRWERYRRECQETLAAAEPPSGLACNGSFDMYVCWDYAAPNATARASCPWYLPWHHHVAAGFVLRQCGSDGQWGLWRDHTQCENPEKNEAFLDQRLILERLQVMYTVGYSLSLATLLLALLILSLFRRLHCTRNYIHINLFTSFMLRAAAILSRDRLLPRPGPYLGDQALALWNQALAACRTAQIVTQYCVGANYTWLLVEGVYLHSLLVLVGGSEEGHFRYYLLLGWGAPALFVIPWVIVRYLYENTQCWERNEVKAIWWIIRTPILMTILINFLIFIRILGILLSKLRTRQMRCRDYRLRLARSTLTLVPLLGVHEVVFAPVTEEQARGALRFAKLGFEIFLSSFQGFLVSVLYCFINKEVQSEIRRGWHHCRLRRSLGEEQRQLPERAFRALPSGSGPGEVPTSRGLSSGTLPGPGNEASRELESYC

[2] = biological target: T2, human glucagon-like peptide 1 receptor (hGLP-1-R) (human, UniProt P43220 24-463); assay: cell-based or functional assay
[3] = biological target: T1, human glucose-dependent insulinotropic …; assay: SPA competition binding assay
[4] = biological target: T2, human glucagon-like peptide 1 receptor …; assay: SPA competition binding assay
[5] = biological target: T1, human glucose-dependent insulinotropic …; assay: SPA competition, [125I]GIP displacement, hGIP-R CHO-S membranes
Method: The peptides analogs are serially diluted into binding buffer. […] Then, 90 μL membranes (4 μg/well), 50 μL [¹²⁵I] […] Plates are read with a MicroBeta® scintillation counter after 12 hours of settling time at room temperature.

[6] = biological target: T2, human glucagon-like peptide 1 receptor …; assay: SPA competition, I-125 GLP-1 displacement, hGLP-1-R 293HEK membranes
Method: The binding buffer contains 25 mM HEPES, pH 7.4, 2.5 mM CaCl₂, 1 mM MgCl₂, 0.1% fatty acid free BSA, 0.003% Tween20, and Roche Complete™ Inhibitors without EDTA. […] The peptide analog is dissolved in PBS and serially diluted in binding buffer. […] Plates are read with a PerkinElmer Life and Analytical Sciences Trilux MicroBeta® scintillation counter after 12 hours of settling time at room temperature.
The IC₅₀ concentration is converted to Ki using the Cheng-Prusoff equation.

[7] = biological target: T3, human glucagon receptor (hGlucR) (human, UniProt P47871 26-477); assay: ratio of Ki values from SPA competition binding assays (Gluc-R against GIP-R and GLP-1-R)
T3 construct: whole, on cells
T3 sequence (P47871 26-477): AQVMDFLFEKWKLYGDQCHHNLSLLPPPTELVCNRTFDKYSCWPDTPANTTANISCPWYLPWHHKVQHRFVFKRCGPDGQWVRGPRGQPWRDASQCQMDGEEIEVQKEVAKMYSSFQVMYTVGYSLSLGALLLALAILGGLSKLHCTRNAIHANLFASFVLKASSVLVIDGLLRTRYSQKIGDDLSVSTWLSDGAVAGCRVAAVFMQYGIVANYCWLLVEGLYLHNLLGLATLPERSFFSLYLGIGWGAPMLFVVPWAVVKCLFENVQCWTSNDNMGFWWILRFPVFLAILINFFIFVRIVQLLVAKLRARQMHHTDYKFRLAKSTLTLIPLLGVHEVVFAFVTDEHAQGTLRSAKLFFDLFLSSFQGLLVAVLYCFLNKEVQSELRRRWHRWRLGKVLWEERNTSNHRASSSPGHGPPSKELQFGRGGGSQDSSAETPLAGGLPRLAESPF

Row | Binder | EC50 (relative), intracellular cAMP in hGIP-R-CHO-S cells, HTRF [1] | EC50 (relative), intracellular cAMP in hGLP-1-R-293HEK cells, HTRF [2] | Ki [3] | Ki [4] | Ki [5] | Ki [6] | selectivity ratio versus Gluc-R [7]
1 | Y[Aib]EGTFTSDYSI[Aib]LDKIAQRA[1Nal]VQWLIA[Aib]KGKKQEWKHQITQ (not fully specified (C-terminus), Not PEGylated) [Example 1 (Aib2, Aib13, Nal22, Aib29 GIP analog, 42 residues)] | 0.005 nM | 0.036 nM | < 100 nM | < 100 nM | 0.044 nM | 0.096 nM | ≥ 100 times
2 | Y[Aib]EGTFTSDYSI[Aib]LDKIAQRA[1Nal]VQWLIA[Aib]KGKKQEWKHQITQC([acetamide-mPEG 20 kDa])C([acetamide-mPEG 20 kDa])-NH2 | 0.207 nM | 0.959 nM | < 100 nM | < 100 nM | 9.22 nM | 6.2 nM | ≥ 100 times
3 | Y[Aib]EGTFTSDYSI[Aib]LDKIAQRAFVQWLIA[Aib]KGKKQEWKHQITQ (not fully specified (C-terminus), Not PEGylated) [Example 2 (Aib2, Aib13, Aib29 GIP analog, 42 residues)] | 0.023 nM | 0.045 nM | < 100 nM | < 100 nM | 0.023 nM | 0.059 nM | ≥ 100 times
4 | Y[Aib]EGTFTSDYSI[Aib]LDKIAQRAFVQWLIA[Aib]KGKKQEWKHQITQC([maleimide-mPEG 20 kDa])C([maleimide-mPEG 20 kDa])-NH2 [Aib2, Aib13, Aib29, Cys43(PEG20K), Cys44(PEG20K)-GIP (Example 3, PEGylated with mPEG-MAL)] | 0.244 nM | 1.11 nM | < 100 nM | < 100 nM | 9.79 nM | 9 nM | ≥ 100 times
5 | Y[Aib]EGTFTSDYSI[Aib]LDKIAQRA[1Nal]VQWLIA[Aib]KGKKQEWKHQITQC([maleimide-mPEG 20 kDa])C([maleimide-mPEG 20 kDa])-NH2 (also called Ex 4) [Aib2, Aib13, Nal22, Aib29, Cys43(PEG20K), Cys44(PEG20K)-GIP (Example 4, PEGylated with mPEG-MAL)] | 0.277 nM | 0.844 nM | < 100 nM | < 100 nM | 8.23 nM | 5.27 nM | ≥ 100 times
